US5728677, “Methods of inhibiting T-cell dependent proliferation of peripheral blood lymphocytes using the CD2-binding domain of lymphocyte function associated antigen 3” (Biogen, Inc., dated 1998)
Blank lines part the entries; values can stand above or below the molecule they belong to.

What was measured:
CD2 [1] = molecular target: T1, CD2 (human, UniProt P06729)
CD2 [2] = molecular target: T1, CD2; remark: listed apart in the source
Target sequence in this assay (P06729 25-351): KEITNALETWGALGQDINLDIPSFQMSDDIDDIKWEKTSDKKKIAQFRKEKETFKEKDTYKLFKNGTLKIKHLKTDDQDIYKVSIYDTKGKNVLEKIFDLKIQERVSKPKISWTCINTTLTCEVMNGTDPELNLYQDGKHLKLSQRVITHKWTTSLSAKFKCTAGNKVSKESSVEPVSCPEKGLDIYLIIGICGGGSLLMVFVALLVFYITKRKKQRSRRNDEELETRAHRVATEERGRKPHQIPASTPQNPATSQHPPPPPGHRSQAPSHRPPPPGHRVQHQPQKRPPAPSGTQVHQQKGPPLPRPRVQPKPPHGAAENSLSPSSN

CD2 [3] = molecular target: T1, CD2; experiment: Jurkat cell binding assay, microscopy
Description: M57/CHO cells, P24/CHO cells and CHO cells (1 ×10^5) were added to separate wells of a 6-well plate (Corning) and washed twice with RPMI Complete Medium. Jurkat cells (CD2^+), obtained as a gift from Dr. Timothy Springer (Dana Farber Cancer Inst., Boston, Mass.) were washed three times with a solution of RPMI, 10% FCS, 4 mM L-glutamine, and then 5 ×10^6 cells were added to each well and incubated for 4 hours at 0° C. Cells were then washed gently three times with RPMI and examined under the microscope at 40X and 100X magnification for cell-cell binding.
The M100/CHO, M101/CHO and M102/CHO transfectants were subjected to a Jurkat cell binding assay, as described in Example 4 above.

inhibition of PHA dependent PBL proliferation, optimal PHA (CD2 [1]): 20%
Molecule: anti-CD2 monoclonal antibody TS2/18

inhibition of PHA dependent PBL proliferation, suboptimal PHA (0.1 µg/ml) (CD2 [2]): 70%
inhibition of PHA dependent PBL proliferation, optimal PHA (CD2 [1]): 41%
Molecule: LFA3TIP (Fc fusion)

binding result (CD2 [3]): binds
B1: M101 deletion mutant of LFA-3 (ligand)
chain: FSQQIYGVVYGNVTFHVPSNVPLKEVLWKKQKDKVAELENSEFRAFSSFKNRVYLDTVSGSLTIYNLTSSWDCPMEQCKRNSTSIYFKMENDLPQKIQCTLSNPLFNTTSSIILTTCIPSSGHSRHRYALIPIPLAVITTCIVLYMNGILKCDRKPDRTNSN

binding result (CD2 [3]): binds
B2: M102 deletion mutant of LFA-3 (ligand)
chain: FSQQIYGVVYGNVTFHVPSNVPLKEVLWKKQKDKVAELENSEFRAFSSFKNRVYLDTVSGSLTIYNLTSSDEDEYEMESPNITDTMKFFLYVLESLPSPTLTCALTNGSIEVQCMIPEHYNSHRGLIMYSSGHSRHRYALIPIPLAVITTCIVLYMNGILKCDRKPDRTNSN

binding result (CD2 [3]): no binding
B3: M57 deletion mutant of LFA-3 (ligand)
chain: FSQQIYGVVYGNVTFHVPSNVPLKEVLWKKQKDKVAELENSEFRAFSSFKSLTIYNLTSSDEDEYEMESPNITDTMKFFLYVLESLPSPTLTCALTNGSIEVQCMIPEHYNSHRGLIMYSWDCPMEQCKRNSTSIYFKMENDLPQKIQCTLSNPLFNTTSSIILTTCIPSSGHSRHRYALIPIPLAVITTCIVLYMNGILKCDRKPDRTNSN

binding result (CD2 [3]): no binding
B4: M100 deletion mutant of LFA-3 (ligand)
chain: FSQQIYGVVYDEDEYEMESPNITDTMKFFLYVLESLPSPTLTCALTNGSIEVQCMIPEHYNSHRGLIMYSWDCPMEQCKRNSTSIYFKMENDLPQKIQCTLSNPLFNTTSSIILTTCIPSSGHSRHRYALIPIPLAVITTCIVLYMNGILKCDRKPDRTNSN
